Positions count from the first letter of the chain named.
Key:
Test in all cases: EMSA
Conditions in all cases: tags: MBP fusion
ZFP SBS#1352 = ZFP SBS#1352 (synthetic)
Method in brief: (§1)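 Purified ZFP was titrated against labeled double-stranded target (1 nM or lower, at least 10-fold below expected Kd) carrying the natural binding site with flanks. Binding buffer was 10 mM Tris pH 7.5, 100 mM KCl, 1 mM MgCl2, 0.1 mM ZnCl2, 5 mM DTT, 10% glycerol, 0.02% BSA, with equilibration for at least 45 min. Bound and free target were separated on a 10% polyacrylamide gel.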

ZFP SBS#1335 = biological target: T1, ZFP SBS#1335 (synthetic)
T1 chain: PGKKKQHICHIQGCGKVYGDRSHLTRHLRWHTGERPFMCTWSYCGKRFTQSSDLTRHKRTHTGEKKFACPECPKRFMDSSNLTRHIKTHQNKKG
Method in brief: as §1

ZFP SBS#1334 = biological target: T2, ZFP SBS#1334 (synthetic)
T2 chain: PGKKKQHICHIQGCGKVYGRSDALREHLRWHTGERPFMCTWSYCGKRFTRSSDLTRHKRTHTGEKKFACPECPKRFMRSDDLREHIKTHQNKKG
Method in brief: as §1

ZFP SBS#1346 = ZFP SBS#1346 (synthetic)
Method in brief: as §1

ZFP SBS#1357 = biological target: T3, ZFP SBS#1357 (synthetic)
T3 chain: T1 chain with D20Q, R21S, H23S, T25V, Q50R, S52D, D53A, R56T, S79R
Method in brief: as §1

ZFP SBS#1358 = biological target: T4, ZFP SBS#1358 (synthetic)
T4 chain: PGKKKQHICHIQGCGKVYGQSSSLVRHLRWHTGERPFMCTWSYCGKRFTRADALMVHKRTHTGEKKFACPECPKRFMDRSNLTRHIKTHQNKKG
Method in brief: as §1

ZFP SBS#1356 = ZFP SBS#1356 (synthetic)
Method in brief: as §1

ZFP SBS#1355 = ZFP SBS#1355 (synthetic)
Method in brief: as §1

ZFP SBS#1338 = biological target: T5, ZFP SBS#1338 (synthetic)
T5 chain: T2 chain with A23E, R25T, E26R, S52D, D53A, R56Q, D81H, R83S, E84R
Method in brief: as §1

ZFP SBS#1340 = biological target: T6, ZFP SBS#1340 (synthetic)
T6 chain: T2 chain with A23E, R25T, E26R, S52D, D53A, R56Q, D80H, D81H, R83S, E84R
Method in brief: as §1

ZFP SBS#1339 = biological target: T7, ZFP SBS#1339 (synthetic)
T7 chain: T2 chain with A23E, R25T, E26R, S52D, D53S, R56Q, D81H, R83S, E84R
Method in brief: as §1

ZFP SBS#1341 = biological target: T8, ZFP SBS#1341 (synthetic)
T8 chain: T2 chain with A23E, R25T, E26R, S52D, D53S, R56Q, D80H, D81H, R83S, E84R
Method in brief: as §1

ZFP SBS#1348 = biological target: T9, ZFP SBS#1348 (synthetic)
T9 chain: T2 chain with R25T, E26A, R50Q, S51A, S52A, D53T, R56T, D81H, R83S, E84R
Method in brief: as §1

ZFP SBS#1351 = biological target: T10, ZFP SBS#1351 (synthetic)
T10 chain: T2 chain with R50Q, S52H, R56K, D81H, R83S, E84R
Method in brief: as §1

ZFP SBS#1343 = biological target: T11, ZFP SBS#1343 (synthetic)
T11 chain: T2 chain with A23N, R25T, E26T, S51T, D53T, D81N, R83T
Method in brief: as §1

ZFP SBS#1342 = biological target: T12, ZFP SBS#1342 (synthetic)
T12 chain: T2 chain with A23N, D81N, R83T
Method in brief: as §1

ZFP SBS#1319 = biological target: T13, ZFP SBS#1319 (synthetic)
T13 chain: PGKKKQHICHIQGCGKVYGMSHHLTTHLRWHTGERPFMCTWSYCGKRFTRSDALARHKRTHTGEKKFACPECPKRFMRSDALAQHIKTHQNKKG
Method in brief: as §1

ZFP SBS#1318 = biological target: T14, ZFP SBS#1318 (synthetic, UniProt P08047)
T14 chain: T13 chain with M20T, H22S, T25A, T26S
Method in brief: as §1

ZFP SBS#1344 = biological target: T15, ZFP SBS#1344 (synthetic)
T15 chain: T1 chain with H23N, Q50D, S51R, D53H, T55A, D78R, S80D, N81T, T83R, R84E
Method in brief: as §1

ZFP SBS#1330 = ZFP SBS#1330 (synthetic)
Method in brief: as §1

ZFP SBS#1347 = biological target: T16, ZFP SBS#1347 (synthetic)
T16 chain: T2 chain with R25T, E26S, R50Q, S52H, D53H, R56T, D81N, R83T
Method in brief: as §1

ZFP SBS#1350 = ZFP SBS#1350 (synthetic)
Method in brief: as §1

ZFP SBS#1336 = biological target: T17, ZFP SBS#1336 (synthetic)
T17 chain: T2 chain with R20Q, D22G, A23H, R25A, E26R, R50Q, D81H, R83A
Method in brief: as §1

ZFP SBS#1337 = ZFP SBS#1337 (synthetic)
Method in brief: as §1

ZFP SBS#1324 = ZFP SBS#1324 (synthetic)
Method in brief: as §1

ZFP SBS#1323 = ZFP SBS#1323 (synthetic)
Method in brief: as §1

ZFP SBS#1322 = ZFP SBS#1322 (synthetic)
Method in brief: as §1

ZFP SBS#1321 = biological target: T18, ZFP SBS#1321 (synthetic)
T18 chain: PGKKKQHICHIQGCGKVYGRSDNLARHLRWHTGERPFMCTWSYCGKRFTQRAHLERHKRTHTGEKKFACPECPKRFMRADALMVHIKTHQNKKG
Method in brief: as §1

ZFP SBS#1320 = biological target: T19, ZFP SBS#1320 (synthetic)
T19 chain: T18 chain with A79S, M83T, V84T
Method in brief: as §1

ZFP SBS#1353 = biological target: T20, ZFP SBS#1353 (synthetic, UniProt P08047)
T20 chain: T13 chain with M20Q, H22G, T25N, T26Q, A53E, A55Q, A83R, Q84E
Method in brief: as §1

ZFP SBS#1354 = biological target: T21, ZFP SBS#1354 (synthetic, UniProt P08047)
T21 chain: T13 chain with M20K, S21N, H22W, H23K, T25Q, T26A, A53E, A55Q, A83R, Q84E
Method in brief: as §1

ZFP SBS#1328 = biological target: T22, ZFP SBS#1328 (synthetic)
T22 chain: T1 chain with D20T, R21S, S22G, T25V, D53A, D78R, S80D, N81A, R84T
Method in brief: as §1

ZFP SBS#1325 = biological target: T23, ZFP SBS#1325 (synthetic)
T23 chain: T13 chain with M20T, H22G, T25V, T26R, R50T, D52G, A53S, A55T, A83T, Q84K
Method in brief: as §1

ZFP SBS#1327 = biological target: T24, ZFP SBS#1327 (synthetic)
T24 chain: T13 chain with M20T, H22G, T25V, T26R, R50T, D52G, A53S, A55T, A83T, Q84T
Method in brief: as §1

ZFP SBS#1326 = biological target: T25, ZFP SBS#1326 (synthetic)
T25 chain: T1 chain with D20T, R21S, S22G, T25V, D53A, D78R, S80D, N81A, R84K
Method in brief: as §1

ZFP SBS#1352 (synthetic), sequence (chain, as listed by the source): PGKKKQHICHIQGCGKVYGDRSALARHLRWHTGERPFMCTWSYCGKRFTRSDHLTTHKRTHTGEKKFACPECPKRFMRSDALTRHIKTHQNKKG
ZFP SBS#1337 (synthetic), sequence (chain, as listed by the source): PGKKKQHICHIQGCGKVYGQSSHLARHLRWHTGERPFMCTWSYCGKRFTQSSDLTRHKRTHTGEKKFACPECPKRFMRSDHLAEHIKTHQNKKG
ZFP SBS#1322 (synthetic), sequence (chain, as listed by the source): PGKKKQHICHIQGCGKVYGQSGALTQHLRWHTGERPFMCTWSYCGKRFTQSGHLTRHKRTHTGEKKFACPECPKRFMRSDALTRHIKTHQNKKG
ZFP SBS#1324 (synthetic), sequence (chain, as listed by the source): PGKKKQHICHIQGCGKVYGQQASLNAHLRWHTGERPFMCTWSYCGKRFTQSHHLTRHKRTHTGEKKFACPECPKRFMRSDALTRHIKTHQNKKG
ZFP SBS#1330 (synthetic), sequence (chain, as listed by the source): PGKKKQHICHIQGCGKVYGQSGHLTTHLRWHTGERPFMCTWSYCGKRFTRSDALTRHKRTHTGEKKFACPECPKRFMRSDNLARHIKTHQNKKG
ZFP SBS#1355 (synthetic), sequence (chain, as listed by the source): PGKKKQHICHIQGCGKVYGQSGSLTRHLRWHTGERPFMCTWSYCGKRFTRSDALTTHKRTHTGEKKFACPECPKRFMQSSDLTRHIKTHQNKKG
ZFP SBS#1350 (synthetic), sequence (chain, as listed by the source): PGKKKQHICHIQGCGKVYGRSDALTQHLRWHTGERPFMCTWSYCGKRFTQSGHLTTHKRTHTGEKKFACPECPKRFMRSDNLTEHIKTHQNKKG
ZFP SBS#1356 (synthetic), sequence (chain, as listed by the source): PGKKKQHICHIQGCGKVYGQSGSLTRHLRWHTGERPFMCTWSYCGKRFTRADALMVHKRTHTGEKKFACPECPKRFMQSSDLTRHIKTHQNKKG

B1: GTGTGGGTC (dsDNA)
DNA 1: GTGTGGGTC
DNA 2: GACCCACAC
- Kd (ZFP SBS#1352): 0.023 nM

B2: GACGCTGGC (dsDNA)
DNA 1: GACGCTGGC
DNA 2: GCCAGCGTC
- Kd (ZFP SBS#1335): 1.4 nM

B3: CCGGCGCTG (dsDNA)
DNA 1: CCGGCGCTG
DNA 2: CAGCGCCGG
- Kd (ZFP SBS#1334): 0.31 nM

B4: GATGTGTGA (dsDNA)
DNA 1: GATGTGTGA
DNA 2: TCACACATC
- Kd (ZFP SBS#1346): 0.153 nM

B5: GACTTGGTA (dsDNA)
DNA 1: GACTTGGTA
DNA 2: TACCAAGTC
- Kd (ZFP SBS#1357): 0.032 nM
- Kd (ZFP SBS#1358): 0.05 nM

B6: GCTTTGGCA (dsDNA)
DNA 1: GCTTTGGCA
DNA 2: TGCCAAAGC
- Kd (ZFP SBS#1356): 0.034 nM
- Kd (ZFP SBS#1355): 0.172 nM

B7: GGGATGGCG (dsDNA)
DNA 1: GGGATGGCG
DNA 2: CGCCATCCC
- Kd (ZFP SBS#1338): 1.04 nM
- Kd (ZFP SBS#1340): 0.751 nM
- Kd (ZFP SBS#1339): 0.569 nM
- Kd (ZFP SBS#1341): 4.1 nM

B8: GGGTCACTG (dsDNA)
DNA 1: GGGTCACTG
DNA 2: CAGTGACCC
- Kd (ZFP SBS#1348): 2.58 nM
- Kd (ZFP SBS#1351): 0.234 nM

B9: CAGGCGCAG (dsDNA)
DNA 1: CAGGCGCAG
DNA 2: CTGCGCCTG
- Kd (ZFP SBS#1343): 37 nM
- Kd (ZFP SBS#1342): 0.68 nM

B10: ATGGTGTGT (dsDNA)
DNA 1: ATGGTGTGT
DNA 2: ACACACCAT
- Kd (ZFP SBS#1319): 0.228 nM
- Kd (ZFP SBS#1318): 0.048 nM

B11: CCGGGCGAC (dsDNA)
DNA 1: CCGGGCGAC
DNA 2: GTCGCCCGG
- Kd (ZFP SBS#1344): 2.28 nM

B12: GAGGTGTGA (dsDNA)
DNA 1: GAGGTGTGA
DNA 2: TCACACCTC
- Kd (ZFP SBS#1330): 0.175 nM

B13: CAGTGAATG (dsDNA)
DNA 1: CAGTGAATG
DNA 2: CATTCACTG
- Kd (ZFP SBS#1347): 8.23 nM
- Kd (ZFP SBS#1350): 74.1 nM

B14: CGGGCTGGA (dsDNA)
DNA 1: CGGGCTGGA
DNA 2: TCCAGCCCG
- Kd (ZFP SBS#1336): 1.4 nM
- Kd (ZFP SBS#1337): 0.235 nM

B15: GTGGGAATA (dsDNA)
DNA 1: GTGGGAATA
DNA 2: TATTCCCAC
- Kd (ZFP SBS#1324): 18.5 nM
- Kd (ZFP SBS#1323): 0.744 nM
- Kd (ZFP SBS#1322): 0.799 nM

B16: TTGGGAGAG (dsDNA)
DNA 1: TTGGGAGAG
DNA 2: CTCTCCCAA
- Kd (ZFP SBS#1321): 0.127 nM
- Kd (ZFP SBS#1320): 0.044 nM

B17: CTGGCGAGA (dsDNA)
DNA 1: CTGGCGAGA
DNA 2: TCTCGCCAG
- Kd (ZFP SBS#1353): 56.5 nM
- Kd (ZFP SBS#1354): 20.9 nM

B18: TTGGTTGGT (dsDNA)
DNA 1: TTGGTTGGT
DNA 2: ACCAACCAA
- Kd (ZFP SBS#1328): 7.95 nM
- Kd (ZFP SBS#1325): 0.306 nM
- Kd (ZFP SBS#1327): 0.566 nM
- Kd (ZFP SBS#1326): 4.38 nM

From US20030068675, “Position dependent recognition of GNN nucleotide triplets by zinc fingers” (published 2003)
